Three molecules from patent US20230242662A1 (BIOATLA, published 2023) can be followed below.

Substitutions are numbered along the chain they refer to.

In test [1] the target is T1, cyno CD46 expressed on 293 cells (cynomolgus).
T1 construct: whole, on cells; The construct on the cells is not described; also called HEK 293 cells expressing cyno CD46
Nature of the test: FACS, 293 cells expressing cyno CD46; EC50 at pH 7.4 over EC50 at pH 6.0. On the procedure:
(§1) A similar FACS analysis was also carried out using 293 cells expressing cyno CD46. […] The EC50 values for binding to the 293 cells expressing cyno CD46 by the conditionally active anti-CD46 antibodies are summarized in Table 6.

Test [2] concerns the target T2, recombinant cyno CD46 antigen (cynomolgus, UniProt A0A2K5WCL8 35-328).
T2 construct: extracellular domain; Plate-coated antigen of the ELISA; also called cynomolgus CD46 extracellular domain
T2 sequence: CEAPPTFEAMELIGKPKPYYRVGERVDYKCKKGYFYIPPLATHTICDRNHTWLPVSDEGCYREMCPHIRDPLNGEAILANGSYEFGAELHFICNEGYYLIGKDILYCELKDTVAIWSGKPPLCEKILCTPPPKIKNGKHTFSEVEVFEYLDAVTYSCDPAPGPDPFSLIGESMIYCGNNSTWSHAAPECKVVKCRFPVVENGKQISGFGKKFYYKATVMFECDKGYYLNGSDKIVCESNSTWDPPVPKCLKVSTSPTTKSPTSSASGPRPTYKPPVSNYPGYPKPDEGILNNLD
Nature of the test: ELISA, coated cyno CD46; EC50 at pH 7.4 over EC50 at pH 6.0. The procedure:
The binding activities of conditionally active anti-CD46 antibodies to cyno CD46 were measured by ELISA and are shown in FIGS. 3-4. The EC50 values for binding to the cyno CD46 at pH 6.0 and pH 7.4 for the conditionally active anti-CD46 antibodies are summarized in Table 2.
[…] Cover with sealing film and place the plate onto a plate shaker set to 50 rpm for 60 minutes at room temperature. [0351] 6) Decant plates and tap out residual liquid on a stack of paper towels. [0352] 7) Serially dilute test articles in 3-fold dilutions starting at 3000 ng/mL in pH 6.0 or pH 7.4 ELISA incubation buffer. [0353] 8) Add 100 μL/well of diluted test articles to the plates [0354] 9) Cover with sealing film and place the plates onto a plate shaker set to 50 rpm for 60 minutes at room temperature. […] 10) Decant plates and tap out residual liquid on a stack of paper towels. [0356] 11) Wash wells three times by dispensing 200 μL of pH 6.0 or pH 7.4 ELISA wash buffer to the wells and completely aspirate the contents. [0357] 12) Dilute the HRP secondary antibody at 1:2500 in pH 6.0 or pH 7.4 ELISA incubation buffer. [0358] 13) Add 100 μL HRP secondary antibody diluted in pH 6.0 or pH 7.4 ELISA incubation buffer to each well [0359] 14) Cover with sealing film and place the plates onto a plate shaker set to 50 rpm for 60 minutes at room temperature. [0360] 15) Decant plates and tap out residual liquid on a stack of paper towels. [0361] 16) Wash wells three times by dispensing 200 μL of pH 6.0 or pH 7.4 ELISA wash buffer to the wells and completely aspirate the contents. [0362] 17) Dispense 50 μL per well of the TMB substrate solution into all wells of the plates. Incubate at room temperature for about 2 minutes 15 seconds or 2 minutes. […] 18) Add 50 μL per well of 1N HCl into all wells of the plates. Read plates at 450 nm using PerkinElmer, EnSpire 2300 Multilabel Reader.
(In general: ELISA stands for enzyme-linked immunosorbent assay.)

In test [3] the target is T3, huCD46-His (human, UniProt P15529 35-343).
T3 construct: extracellular domain; Immobilised by amine coupling on the SPR chip; It may be the same protein as the ELISA antigen; also called Human CD46-His; human CD46; not shown: His tag
T3 sequence (looked up): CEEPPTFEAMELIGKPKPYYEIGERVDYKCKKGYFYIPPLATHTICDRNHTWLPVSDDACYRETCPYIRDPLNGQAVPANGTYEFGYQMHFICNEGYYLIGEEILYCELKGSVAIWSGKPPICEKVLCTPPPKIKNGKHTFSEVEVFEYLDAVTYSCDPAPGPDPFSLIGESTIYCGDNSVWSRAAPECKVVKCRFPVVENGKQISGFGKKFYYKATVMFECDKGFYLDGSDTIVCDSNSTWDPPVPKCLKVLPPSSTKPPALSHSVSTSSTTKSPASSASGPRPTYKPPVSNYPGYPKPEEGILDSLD
Kind of test: SPR, huCD46-His immobilised, antibody as analyte, pH 7.4. The procedure: (§2) Binding kinetics of anti-CD46 antibodies were measured by surface plasmon resonance on a SPR2/4 instrument (Sierra Sensors, Hamburg, Germany) and flat amine sensor chips. The SPR sensor contained four flow cells (FC1-FC4), each of which can be addressed individually or in groups. huCD46-His was immobilized in FC2, and cynoCD46-His was immobilized in FC4. No protein was immobilized in FC1 and FC3 which were used as control surfaces for FC2 and FC4, respectively.
(§3) All injections were done at a flow rate of 25 μL/min and 25° C. The sensor surface was activated with 1-ethyl-3-(3-dimethylaminopropyl)-carbodiimide (EDC) and N-hydroxysuccinimide (NHS) (200 mM/50 mM) for 480 seconds. Human CD46-His (2 μg/mL in 10 mM NaAc, pH5.0) was injected for 480s and the surface was inactivated by injecting 1M ethanolamine-HCl for 480s. cynoCD46-His was immobilized using the same conditions as described for huCD46-His, except that it was diluted into 10 mM NaAc buffer pH4.5. The control surface was activated and deactivated using the same conditions, but without injecting protein. PBST buffer (PBS pH7.4 with 0.05% TWEEN20™) was used as running buffer for the surface preparation. The running solution was switched to PBST with 30 mM sodium bicarbonate with the pH adjusted as indicated in the figures before the analyte injections. The instrument was equilibrated with the running solution for one hour before the first analyte injection.
(§4) The off-rate was measured for 360 s. The chip surface was regenerated after each cycle of interaction by injecting 6 μL of 10 mM glycine (pH 2.0). Flow cells 1 and 3 without immobilized protein were used as control surfaces for reference subtraction.

Test [4] concerns the target T4, cynoCD46-His (cynomolgus, UniProt A0A2K5WCL8 35-328).
T4 construct: extracellular domain; Immobilised by amine coupling on the SPR chip; not shown: His tag
T4 sequence: T2 sequence
Kind of test: SPR, cynoCD46-His immobilised, antibody as analyte, pH 6.5. On the procedure: as §2, §3, §4
On the technique in general: In SPR one partner is held on a chip, and binding of the other changes the refractive index at the surface.

The target of test [5] is T4, cynoCD46-His. Nature of the test: SPR, cynoCD46-His immobilised, antibody as analyte, pH 7.4. The procedure:
as §2, §3, §4

The target of test [6] is T1, cyno CD46 expressed on 293 cells. Kind of test: FACS, 293 cells expressing cyno CD46, pH 6.0. The procedure:
as §1
(In flow cytometry, cells or beads pass a laser one at a time.)

In test [7] the target is T4, cynoCD46-His. Kind of test: SPR, cynoCD46-His immobilised, antibody as analyte, pH 6.0. On the procedure:
as §2, §3, §4

The target in test [8] is T1, cyno CD46 expressed on 293 cells. Kind of test: FACS, 293 cells expressing cyno CD46, pH 7.4. The procedure: as §1
For test [9], the target named is T3, huCD46-His. Nature of the test: SPR, huCD46-His immobilised, antibody as analyte, pH 6.0. The procedure:
as §2, §3, §4

The target in test [10] is T3, huCD46-His. Kind of test: SPR, huCD46-His immobilised, antibody as analyte, pH 6.5. The procedure:
as §2, §3, §4

B1: BA-133-04-03 (antibody, V domains shown)
VH: EVQLVESGGGLVQPGGSLRLSCAASGGSVSSYDISWIRQSPSRGLEWLGVIWTDGGTNYNSAFMSRFTISRDDSKNTAYLQMNSLKTEDTAVYYCERVYDGYPWFAYWGQGTLVTVSS
VL: AIQLTQSPSSLSASVGDRVTITCRASQGISNYLNWYLQKPGQSPQLLIYYTSSLFSGVPDRFSGSGSGTDFTLKISRVEAEDVGVYYCQQYIKLPWTFGQGTKVEIK
notes: also called CPE hit BA133-04-03
With B1, the “Ratio (pH 7.4/6.0)” value in [1] was determined as 8. Further, the “ratio (ph 7.4/pH 6.0)” value in [2] was 7.14. Besides, the Kd with huCD46-His [3] was found to be 4.8 nM; with cynoCD46-His [4], 0.624 nM; in the test with cynoCD46-His [5], 1.26 nM; in the test with cynoCD46-His [7], 0.514 nM; with huCD46-His [9] it was 1.52 nM; in the test with huCD46-His [10], 2.07 nM. Besides, the koff came to 0.00249 s⁻¹ with huCD46-His [3]; 0.00142 s⁻¹ in the test with cynoCD46-His [4]; 0.00153 s⁻¹ with cynoCD46-His [5]; 0.00143 s⁻¹ in the test with cynoCD46-His [7]; 0.00179 s⁻¹ with huCD46-His [9]; 0.00195 s⁻¹ in the test with huCD46-His [10]. Further, the kon with huCD46-His [3] came out at 519000 M⁻¹ s⁻¹; in the test with cynoCD46-His [4] it was 2.28e+06 M⁻¹ s⁻¹; in the test with cynoCD46-His [5], 1.21e+06 M⁻¹ s⁻¹; with cynoCD46-His [7], 2.79e+06 M⁻¹ s⁻¹; in the test with huCD46-His [9], 1.18e+06 M⁻¹ s⁻¹; with huCD46-His [10], 941000 M⁻¹ s⁻¹. The EC50 in [6] turned out to be 0.0411 µg/mL; in test [8] it was 0.33 µg/mL.

B2: BAP133-2-02-12 (antibody, V domains shown)
VH: B1 VH
VL: AIQLTQSPSSLSASVGDRVTITCRALQGISNYLNWYQQKPGKAPKLLIYYTSSLHSGVPSRFSGSGSGTEFTLTISSLQPDDFATYYCQQYIKLPWTFGQGTKVEIK
notes: also called BAP133-02-02-12; CPE hit BAP133-2-02-12
For B2, the “Ratio (pH 7.4/6.0)” value in [1] was 14.8. The “ratio (ph 7.4/pH 6.0)” value in test [2] is 13.3. In addition, the Kd in the test with huCD46-His [3] is 8.79 nM; with cynoCD46-His [4], 1.47 nM; with cynoCD46-His [5] it was 3.88 nM; with cynoCD46-His [7], 1.45 nM; in the test with huCD46-His [9], 7.51 nM; with huCD46-His [10], 5.78 nM. Further, the koff with huCD46-His [3] was 0.00225 s⁻¹; with cynoCD46-His [4], 0.0017 s⁻¹; with cynoCD46-His [5], 0.00192 s⁻¹; with cynoCD46-His [7], 0.00184 s⁻¹; with huCD46-His [9] it was 0.00404 s⁻¹; in the test with huCD46-His [10], 0.00282 s⁻¹. For the same molecule, the kon with huCD46-His [3] was found to be 256000 M⁻¹ s⁻¹; in the test with cynoCD46-His [4], 1.16e+06 M⁻¹ s⁻¹; with cynoCD46-His [5], 495000 M⁻¹ s⁻¹; in the test with cynoCD46-His [7] it was 1.27e+06 M⁻¹ s⁻¹; with huCD46-His [9] it was 539000 M⁻¹ s⁻¹; with huCD46-His [10] it was 488000 M⁻¹ s⁻¹. Moreover, the EC50 in test [6] was 0.198 µg/mL; in test [8], 2.92 µg/mL.

B3: BA-133-04-04 (antibody, V domains shown)
VH: B1 VH
VL: B1 VL with F55H, S56E
notes: the killing assays used the ADC form; also called CPE hit BA133-04-04
As for B3, the “Ratio (pH 7.4/6.0)” value in test [1] was determined as 10. The “ratio (ph 7.4/pH 6.0)” value in [2] is 13. Further, the Kd in the test with huCD46-His [3] amounted to 4.93 nM; with cynoCD46-His [4], 1.09 nM; with cynoCD46-His [5], 2.28 nM; with cynoCD46-His [7] it was 1.02 nM; with huCD46-His [9] it was 2.51 nM; with huCD46-His [10] it was 1.91 nM. For the same molecule, the koff with huCD46-His [3] was 0.00241 s⁻¹; in the test with cynoCD46-His [4], 0.00145 s⁻¹; in the test with cynoCD46-His [5] it was 0.00154 s⁻¹; with cynoCD46-His [7], 0.00146 s⁻¹; with huCD46-His [9], 0.00207 s⁻¹; with huCD46-His [10], 0.00176 s⁻¹. The association rate constant (kon) with huCD46-His [3] amounted to 490000 M⁻¹ s⁻¹; in the test with cynoCD46-His [4], 1.33e+06 M⁻¹ s⁻¹; with cynoCD46-His [5] it was 673000 M⁻¹ s⁻¹; with cynoCD46-His [7], 1.42e+06 M⁻¹ s⁻¹; in the test with huCD46-His [9] it was 824000 M⁻¹ s⁻¹; with huCD46-His [10] it was 922000 M⁻¹ s⁻¹. Also, the EC50 in test [6] is 0.0947 µg/mL; in test [8] it was 0.944 µg/mL.

For orientation: Kd means the concentration at which binding is half-saturated. Low values mean tighter binding, high ones weaker binding. A word on the koff: it is a measure of how fast the partners let go of each other. A higher koff goes with a short-lived complex. The term kon denotes a measure of how fast the partners come together. Usually EC50 stands for the midpoint of the concentration-response curve. Low readings indicate greater potency, high ones weaker potency.
